{"source": "patent US20070243583A1", "about": "(University of Texas, published 2007)", "binders": {"B1": {"name": "DsbC (enzyme, Escherichia coli, UniProt P0AEG6 21-236, looked up)", "chain": "DDAAIQQTLAKMGIKSSDIQPAPVAGMKTVLTNSGVLYITDDGKHIIQGPMYDVSGTAPVNVTNKMLLKQLNALEKEMIVYKAPQEKHVITVFTDITCGYCHKLHEQMADYNALGITVRYLAFPRQGLDSDAEKEMKAIWCAKDKNKAFDDVMAGKSVAPASCDVDIADHYALGVQLGVSGTPAVVLSNGTLVPGYQPPKEMKEFLDEHQKMTSGK", "notes": "also called wild-type DsbC"}, "B2": {"name": "FkpA-DsbA3 (protein)", "chain": "AEAAKPATAADSKAAFKNDDQKSAYALGASLGRYMENSLKEQEKLGIKLDKDQLIAGVQDAFADKSKLSDQEIEQTLQAFEARVKSSAQAKMEKDAADNEAKGKEYREKFAKEKYEDGKQYTTLEKPVAGAPQVLEFFSFFCPHCYQFEEVLHISDNVKKKLPEGVKMTKYHVNFMGGDLGKDLTQAWAVAMALGVEDKVTVPLFEGVQKTQTIRSASDIRDVFINAGIKGEEYDAAWNSFVVKSLVAQQEKAAADVQLRGVPAMFVNGKYQLNPQGMDTSNMDVFVQQYADTVKYLSEKKHHHHHH"}, "B3": {"name": "FkpA-DsbA5 (protein)", "chain": "AEAAKPATAADSKAAFKNDDQKSAYALGASLGRYMENSLKEQEKLGIKLDKDQLIAGVQDAFADKSKLSDQEIEQTLQAFEARVKSSAQAKMEKDAADNEAKGKEYREKFAKEKDGKQYTTLEKPVAGAPQVLEFFSFFCPHCYQFEEVLHISDNVKKKLPEGVKMTKYHVNFMGGDLGKDLTQAWAVAMALGVEDKVTVPLFEGVQKTQTIRSASDIRDVFINAGIKGEEYDAAWNSFVVKSLVAQQEKAAADVQLRGVPAMFVNGKYQLNPQGMDTSNMDVFVQQYADTVKYLSEKKHHHHHH"}, "B4": {"name": "FkpA-DsbA2 (protein)", "chain": "AEAAKPATAADSKAAFKNDDQKSAYALGASLGRYMENSLKEQEKLGIKLDKDQLIAGVQDAFADKSKLSDQEIEQTLQAFEARVKSSAQAKMEKDAADNEAKGKEYREKFAKEKQYEDGKQYTTLEKPVAGAPQVLEFFSFFCPHCYQFEEVLHISDNVKKKLPEGVKMTKYHVNFMGGDLGKDLTQAWAVAMALGVEDKVTVPLFEGVQKTQTIRSASDIRDVFINAGIKGEEYDAAWNSFVVKSLVAQQEKAAADVQLRGVPAMFVNGKYQLNPQGMDTSNMDVFVQQYADTVKYLSEKKHHHHHH"}, "B5": {"name": "FkpA-DsbA4 (protein)", "chain": "AEAAKPATAADSKAAFKNDDQKSAYALGASLGRYMENSLKEQEKLGIKLDKDQLIAGVQDAFADKSKLSDQEIEQTLQAFEARVKSSAQAKMEKDAADNEAKGKEYREKFAKEKEDGKQYTTLEKPVAGAPQVLEFFSFFCPHCYQFEEVLHISDNVKKKLPEGVKMTKYHVNFMGGDLGKDLTQAWAVAMALGVEDKVTVPLFEGVQKTQTIRSASDIRDVFINAGIKGEEYDAAWNSFVVKSLVAQQEKAAADVQLRGVPAMFVNGKYQLNPQGMDTSNMDVFVQQYADTVKYLSEKKHHHHHH"}}}
{"target": "the molecule itself", "assay": "gel filtration FPLC of the purified protein (self-association, homodimer)"}
{"binder": "B1", "binding result": "binds"}
{"target": "T1, RNase A (UniProt P61823 27-150)", "T1 sequence (looked up)": "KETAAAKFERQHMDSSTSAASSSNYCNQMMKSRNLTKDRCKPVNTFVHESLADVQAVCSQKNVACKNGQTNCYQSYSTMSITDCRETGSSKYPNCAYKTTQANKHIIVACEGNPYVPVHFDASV", "assay": "cell-based or functional assay", "units": {"RNAse Refolding": "µM/min/µM Enzyme"}}
{"binder": "B1", "RNAse Refolding": 0.067}
{"target": "insulin", "assay": "not given"}
{"binder": "B2", "Insulin Reduction (*10^3 DA650 nm/min^-2)": 0.43}
{"binder": "B3", "Insulin Reduction (*10^3 DA650 nm/min^-2)": 0.38}
{"binder": "B4", "Insulin Reduction (*10^3 DA650 nm/min^-2)": 0.45}
{"binder": "B5", "Insulin Reduction (*10^3 DA650 nm/min^-2)": 0.55}
{"binder": "B1", "Insulin Reduction (*10^3 DA650 nm/min^-2)": 5.81}
{"target": "citrate synthase", "assay": "not given", "units": {"Citrate Synthase Inactivation, CS t1/2": "min", "Citrate Synthase Inactivation, µ": "min - 1"}}
{"binder": "B2", "Citrate Synthase Inactivation, CS t1/2": 2.01, "Citrate Synthase Inactivation, µ": 0.36}
{"binder": "B3", "Citrate Synthase Inactivation, CS t1/2": 2.71, "Citrate Synthase Inactivation, µ": 0.26}
{"binder": "B4", "Citrate Synthase Inactivation, CS t1/2": 2.46, "Citrate Synthase Inactivation, µ": 0.17}
{"binder": "B5", "Citrate Synthase Inactivation, CS t1/2": 3.82, "Citrate Synthase Inactivation, µ": 0.45}
{"binder": "B1", "Citrate Synthase Inactivation, CS t1/2": 3.15, "Citrate Synthase Inactivation, µ": 0.22}
